The target in the assay is T1, MBP-Rng2-1306-end (fission yeast, UniProt O14188 1306-1489).
T1 sequence (looked up): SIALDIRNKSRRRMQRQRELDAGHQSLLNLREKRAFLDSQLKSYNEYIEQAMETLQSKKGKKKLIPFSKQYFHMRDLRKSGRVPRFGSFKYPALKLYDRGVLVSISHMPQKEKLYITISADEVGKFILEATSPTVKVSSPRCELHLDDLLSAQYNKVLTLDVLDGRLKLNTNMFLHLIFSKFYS
The assay is described as follows: pull-down.

One molecule from publication PMC3088474 (Current biology : CB, 2011) can be followed below.

B1: GST-Mid1 1–100 (domain or fragment, fission yeast, UniProt P78953 1-100, looked up)
chain: MKEQEFSYREAKDVSLDSKGLENSFLSSPNREKTPLFFEGNSNETSGYDQTKNFTHGDGDMSLGNLSELNVATDLLESLDLRSMYMHGYGHLDSSFSSQH
Turning to B1, the binding result was “binds”.
